# Key:
# [1] = system: Caco-2 polarized monolayer; assay type: in vitro ADME, human
# Description: For growing cells, mimicking epithelial barriers in vitro, Caco-2 cells were seeded onto 24-well polycarbonate Millicell cell culture inserts (0.4 μm, 0.6 cm^2 surface area) (Millipore, Burlington, MA, USA), precoated with 0.2% bovine gelatin (Sigma-Aldrich), at a density of 2.5 × 10^5 cells/cm^2. The cells were grown for 21 days in a complete DMEM/F12 (1:1) medium with re-feeding every 2–3 days with a fresh complete medium. The integrity of the Caco-2 cell monolayer was checked by measuring the transepithelial electrical resistance (TEER) using a Millicell-ERS Voltohmmeter (Millipore). Only cell monolayers with TEER > 400 Ωcm^2 (after subtracting TEER in blank inserts without Caco-2 cells) were used in transport across epithelial monolayer and cytokine production experiments.
# The recombinant Psd1 was labeled with fluorescein isothiocyanate isomer I (FITC) (Sigma-Aldrich). For this, 0.5 mg of Psd1 was reconstituted in 20 µL of DMSO, then added to 100 µL of the buffer for coupling (0.1 M sodium carbonate, 0.1 M sodium bicarbonate, pH 10.8) and 3.7 mg of FITC in 100 µL of DMSO. The coupling reaction was conducted for 2 h at room temperature in the dark. In order to purify FITC-Psd1, the reaction mixture was loaded onto the PD10 gel-filtration column (GE Healthcare, Chicago, IL, USA) previously equilibrated with transport buffer (Hank’s balanced salt solution, containing 1 mM MgCl2, 1 mM CaCl2, and 10 mM D(+)glucose, pH 7.4).
# Transport of FITC-Psd1 across the Caco-2 epithelial barrier in vitro was performed in the transport buffer. Bidirectional “apical-to-basolateral” (A→B) and “basolateral-to-apical” (B→A) transport of FITC-Psd1 in the transport buffer across epithelial barrier was investigated. The “apical-to-basolateral” assay was initiated by adding 0.4 mL of 2 µM FITC-Psd1 to the apical (luminal) side of the monolayer and 0.7 mL of the transport buffer (pH 7.4) to the basolateral side of the monolayer. The “basolateral-to-apical” assay was performed in a similar manner, except that 0.4 mL of the transport buffer (pH 7.4) was added to the apical side and 0.7 mL of 2 µM FITC-Psd1 to the basolateral (serosal) side. All solutions were pre-warmed to 37 °C before taking into the transport experiment. Transport in vitro across Caco-2 barriers was conducted for 90 min in 4 independent inserts for each studied transport variant.
# An apparent permeability coefficient (Papp) was calculated for each insert according to the following equation:Papp = (V/(A × Ci)) × ΔC/Δt,(1) where V is the volume of the acceptor chamber, A is the area of the membrane insert, Ci is the initial concentration of Psd1, and ΔC/Δt is the solute flux across the barrier. Uptake ratio:UR = Papp(A→B)/Papp(B→A),(2) and efflux ratio:ER = Papp(B→A)/Papp(A→B),(3) for Psd1 were calculated from averaged apparent permeability coefficients measured in 4 independent inserts. Monolayer integrity was checked by measuring TEER before and after the end of the experiment.
# C. albicans v47a3 = assay: Yeast growth in Caco-2/C. albicans co-culture, microscopy; assay type: cell-based, Candida albicans; conditions: 2 μM Psd1, 4 and 24 h
# Description: Candida albicans cells in stock were inoculated onto modified YPD (yeast extract 5 g/L, peptone 10 g/L, glucose 10 g/L) agar plates, and incubated for 24 h at 37 °C. After replating, cells were cultured in complete RPMI-1640 (Capricorn Scientific) without antibiotics at 37 °C to optical density 1.0 at 540 nm, centrifuged, and diluted up to the concentration of 5 × 10^4 cells/mL in fresh RPMI-1640 without FBS and antibiotics. In the case of studying combined action on the epithelium of yeast cells and the pea Psd1 recombinant peptide was dissolved in water at the concentration of 200 μM and was added to yeast cell suspension up to the final concentration of 2 μM. Yeast growth and morphology in the presence or absence of peptide under co-cultivation with Caco-2 cells in a 24-well plate were estimated using an inverted microscope, Olympus CKX41 (Olympus, Tokyo, Japan).
substance,measurement,setting,value
"Psd1: pea defensin from Pisum sativum (UNIPROT P81929), recombinant peptide overexpressed in Escherichia coli (KTCEHLADTYRGVCFTNASCDDHCKNKAHLISGTCHNWKCFCTQNC; UniProt P81929 1-46, looked up)",efflux ratio (ER),[1]; Caco-2,2.29
same,uptake ratio (UR),[1]; Caco-2,0.44
same,"Apparent permeability A→B coefficients (Papp), range of four inserts","[1]; Caco-2, pH 7.4",2.63–3.71 × 10^−6 cm/s
same,Papp A→B,"[1]; Caco-2, pH 7.4",3.04 ± 0.24 × 10^−6 cm/s
same,Papp B→A,"[1]; Caco-2, pH 7.4",6.96 ± 0.22 × 10^−6 cm/s
same,growth of C. albicans in Caco-2/C. albicans co-culture,C. albicans v47a3,did not inhibit the growth of C. albicans
